The data set is described as follows: label from the status in PepcDB records.
With “MNLVETAQAIKTGKVSLGIELGSTRIKAVLITDDFNTIASGSYVWENQFVDGTWTYALEDVWTGIQQSYTQLAADVRSKYHMSLKHINAIGISAMMHGYLAFDQQAKLLVPFRTWRNNITGQAADELTELFDFNIPQRWSIAHLYQAILNNEAHVKQVDFITTLAGYVTWKLSGEKVLGIGDASGVFPIDETTDTYNQTMLTKFSQLDKVKPYSWDIRHILPRVLPAGAIAGKLTAAGASLLDQSGTLDAGSVIAPPEGDAGTGMVGTNSVRKRTGNISVGTSAFSMNVLDKPLSKVYRDIDIVMTPDGSPVAMVHVNNCSSDINAWATIFHEFAARLGMELKPDRLYETLFLESTRADADAGGLANYSYQSGENITKIQAGRPLFVRTPNSKFSLPNFMLTQLYAAFAPLQLGMDILVNEEHVQTDVMIAQGGLFRTPVIGQQVLANALNIPITVMSTAGEGGPWGMAVLANFACRQTAMNLEDFLDQEVFKEPESMTLSPEPERVAGYREFIQRYQAGLPVEAAAGQAIKYLEHHHHHH”, the protein production result is on record as “not failed”.

With “MNLVQAFLLSFTAFFAIMNPFANLPMFVSLTADNNRKEVDAIARLAFIVATVIVALFALLGNYIFSIFGINLSALRIMGGIILGLIGYHMIQGNVSPIQHDPKQSVKDSINSNNTDVAISPLAMPVLAGPGTIATTMNLSSSTNPFIVISAFVVLSVITYFIFIYGEQIMAKLGNNIMNVITKLMGLILATIGVRMLIMGVQVAFHW”, the protein production result is recorded as “failed”.

As for “MNLVQDKVTIITGGTRGIGFAAAKIFIDNGAKVSIFGETQEEVDTALAQLKELYPEEEVLGFAPDLTSRDAVMAAVGQVAQKYGRLDVMINNAGITSNNVFSRVSEEEFKHIMDINVTGVFNGAWCAYQCMKDAKKGVIINTASVTGIFGSLSGVGYPASKASVIGLTHGLGREIIRKNIRVVGVAPGVVNTDMTNGNPPEIMEGYLKALPMKRMLEPEEIANVYLFLASDLASGITATTVSVDGAYRP”, the protein production entry was “not failed”.

With “MNMKKIFKRTSLLLATALIGVTATVQAQKSPQDMDRFIDALMRRMTVEEKIGQLNLPVTGEITTGQAKSSDVAKKIEQGLVGGLFNLKGVAKIRDVQKLAVENSRLGIPLLFGMDVIHGYETIFPIPLGLSCTWDMAAIEQSARIAATEASADGISWTFSPMVDISRDPRWGRVSEGSGEDPFLGGAIARAMVLGYQGKDPDDQLKRNDEIMACVKHFALYGAGEAGRDYNTVDMSRNRMFNEYMYPYEAAVRAGVGSAMASFNEVDGVPATANHWLMTDVLRKQWGFNGFVVTDFTGISEMVEHGIGNLQTVSTRALNAGVDMDMVSEGFVGTLKKSLTEGKITMKTLDAACRRILEAKYKLGLFDDPYKYCDLSRPARDIFTREHRAAARRIAAESFVLLKNEPFEGQGKKSSRPVLPLEKQGTVAVIGPLGNTRSNMPGTWSVAARLDDYPSLYEGLKEMTASRVNITYAKGSNLISDAAYEERATLFGRSLNRDNRTDKKLLDEALKVASGADVIVAALGESSEMSGESSSRTDLGIPDVQRTLLEALLKTGKPVVLTLFTGRPLTLTWEQEHVPAILNVWFGGSEAAYAIGDVLFGDVNPSGKLTMTFPKNVGQIPLFYNHKNTGRPLAEGKWFEKFRSNYLDVDNEPLYPFGYGLSYTTFRYSDIALSTPVMGQNGSTTAVVTVTNTGKRDGAEVVQLYIRDLVGSITRPVRELKGFEKVFLKAGESKTVSFKITPELLRFYDYDLNHVAEPGDFDVMIGGSSQAEKTARLTLK”, the protein production result is given as “failed”.

“MNMYRVLLIILGWISVVLATLGVVLPLLPTTPFLLLAAWCFARSSPRFHNWLLHRSWFGSYLRHWQQHRALPPGAKWKAVTMILLTFALSLWLVKLVWVRILLLVILTILLTFMLRLPVVDPEQQTQGADPKR”: the protein production result was “failed”.

For the sequence “MNNIAAIVVTYNRKKLLKKCIKGLKEQTEKADIIIIDNMSTDGTLEMLQPLINSNEIIYHSTGKNIGGAGGFYEGIKLAYEMGYKYFWLMDDDCIPTSSALEKLMNVVNEKKNFGFLVSKALWKDGEVCKMNIPKIKLTKQVNDFSKKVIQIKMGTFVSFLTSREVVEKVGLPIKEFFIWGDDLEYSQRISQKFPSYLVTNSLVYHETKLNEGSNIALDSVDRLKRYKLAYRNEVVLFKEMGLQGQMYQYFRLVLHCGRILFKSKDHKKERLNIIFQGTRAGYNFHPVIKNIK”, the protein production result was “failed”.

With “MNNIIVGMGEALWDVLPEGKKIGGAPANFAYHVSQFGFDSRVVSAVGNDELGDEIMEVFKEKQLKNQIERVDYPTGTVQVTLDDEGVPCYEIKEGVAWDNIPFTDELKRLALNTRAVCFGSLAQRNEVSRATINRFLDTMPDIDGQLKIFDINLRQDFYTKEVLRESFKRCNILKINDEELVTISRMFGYPGIDLQDKCWILLAKYNLKMLILTCGINGSYVFTPGVVSFQETPKVPVADTVGAGDSFTAAFCASILNGKSVPEAHKLAVEVSAYVCTQSGAMPELPVILKDRLL”, the protein production result is recorded as “not failed”.

For “MNNKITKTSIFLTISLLLITPGFSVVAVGLLTLYSSVKLIKNGLNLNKFDIIPLITLSAYFLSNLPITIIDGDTLRYLDAGIRALLCIPMYFFIKNEISKGANLDNTLCTSTILASFGALAFAFYQFFILNMPRVDGFLFSINFGYLAAALAILSFGLSFTQTRFKYYLYLSVVAATVATILTLTRGAILTLLFVFILFFIVNVRKIKFKQTLVFTLISFLLVSVSYQFSPRIQERVDFTIFEISSIASNNIHAAASSGGRLQLWYAAVEAFKHNPIWGTTYSERESLNIELFKEGKVDEWTSTVPRGHAHSQYFEAIASNGTLGILAIFAMLILPFGVFLNDYRKTGSPISQTGYLFAFGFIIFCLTEAPLQANLIGTFYGFMVAIFYAYIAAKRAKN”, the protein production entry is recorded as “failed”.

Turning to “MNNLFVLLIIIALSVGSNNGSKLWPKNQLHFRNSFSRNYDVLTVHCKSKDDDLGIHTVARSYEYNFKFEDSVFGRTEFFCTLMHGVGSKYSVTFTAYKAKPAFVASTGVIKIWDALDDGIYLTDEDHDFVKIYGW”, the protein production result is “failed”.

As to “MNNLSWSDIKRSTFNAIKKGDLKLLANMIDKYPKVIDAYNSSGYSLLHVAAEQDNVEVLEYLYNNKIDVNITRKNDDGCVTPIHGAVDKNLIGNVEWLIAHGAKIDTGNGIHATPLIGAAFNGNLEMVKLLLKNGADINAFYDIGEGINKTRITPLIAAEMEGHTETCEYLCKNGARKLDAKKYELTQIKNQHDEILQYLQRYFGNVNKTLSEVIPASNVSVNLNIMRNTENDKFITIVTTGMSDCPMDDSDEAFEERFAELIIKLPKDWLIDKNNIKDVNNYWPLGWIRRIAHIPHLYDGWIGKDIIIPNGEPPQPFAPNTKLSCIMICQPDEKELHRFTTSKGNIINLYTLIPIYKEERNMALIKGCKYLRKRMEDRGIDEILNITRENVGLSADEQ”, the protein production result is listed as “failed”.

For “MNNQFSQRVSDIIVYSKEEANRLRSRHIGPEHLLLGMLRDGEGKAIEILSKLNTNLAAVKQQIEARLKTEADDMLLPDAEIPLSNDAAKILKMCILEARGMKSNIADTEHVLLAILRERNNMAASVLEANDVNYVKVLEQATLQPD”, the protein production entry is “failed”.

“MNNRFNGTSIKQYSTTFLLLGSMASAAHVRAADEFHPNSFNSEALKQSMIAEFALAYDDVPTAIHNYTVLAIKSNSTSIKQRALDIALEYNDLKAALDIATHWVVQEPEDVPAMFYLAHIALRAHEYKLAANTLDKILNIDPNADLEQILAGIAPESKEDRENLLETLKTSKEKENPSILVMIAGLEAQNGHLQDALINTNRALRKRPKVTGFILMKANLLIGLNDIEGAQKWYAKSSKRHRDNLDIRLAEARFLIRHNESELALKKLEDIIKTWPDAEDAKFIAGLTSIDLKQYEKAEQYLVDLRYSAKYQNDAYYYLAVNAERKQHFETAKAYYRLVDGSLYVVSRRNLVSIFEKQGNLNDALRFLTQERVNYPQHASFLYQAQAEILKKTGNKKAALRLLDEAIKNISDDPELIYAEVLLLDPFSDRDKLDRTLKQLLLIEPNSPTYLNAYAYTLALQNRRLDEARQYAELALEYAPEQASILDTLGYIAFLQNDYAAAATSLGKAYTLSNNVNIGIRFAKALYMQGNLTEFSEVLQQLKEKNANDPQLKQLDALILPTVTKKS”: the protein production entry is recorded as “failed”.

For the origin of these results see a protein production outcome set (Wang et al. 2014).
